From US9969998B2, “Compositions of adenosine deaminase-2 (ADA2), variants thereof and methods of using same” (Halozyme, Inc., priority 2014, dated 2018) come the findings set out here.

The nature of the data set: Heparin binding ELISA (immobilized heparin). As to conditions: Example 8. The procedure:
Heparin binding of a protein, such as any ADA2 provided herein, can also be assessed using enzyme-linked immunosorbant assay (ELISA) based methods. ELISA-based methods use heparin immobilized on a surface, such as a microtiter plate. The protein of interest which binds to heparin, such as any ADA2 provided herein, is incubated in the heparin coated plate, and binding is detected using antibodies that detect the protein of interest, such as any ADA2 provided herein.
For example, a 96-well plate coated with 100 μL of 200 μg/mL heparin sodium salt (Calibochem, EMD Milipore, Billerica, Mass.; Cat. No. 375095) in Na2CO3 buffer (pH 9.6) can be used to test ADA2 binding to heparin. […] The optical density (OD) of each reaction is measured on a plate reader.
In another example, heparin is immobilized by incubating Streptavidin-coated microtiter plates, such as the Streptavidin-coated 96-well plate (Thermo Fisher Scientific, Rockford, Ill.; Cat. No. 15520), with biotinylated heparin, such as biotin-heparin (Sigma-Aldrich, St. Louis, Mo.; Cat No. B9806-10MG). […] The optical density (OD) of each reaction is measured on a plate reader. […]
Background: ELISA stands for enzyme-linked immunosorbent assay.

B1: PEGylated ADA2: ADA2 conjugate that is a PEGylated ADA2 (conjugate, UniProt Q9NZK5 30-511, looked up)
Adenosine deaminase 2: IDETRAHLLLKEKMMRLGGRLVLNTKEELANERLMTLKIAEMKEAMRTLIFPPSMHFFQAKHLIERSQVFNILRMMPKGAALHLHDIGIVTMDWLVRNVTYRPHCHICFTPRGIMQFRFAHPTPRPSEKCSKWILLEDYRKRVQNVTEFDDSLLRNFTLVTQHPEVIYTNQNVVWSKFETIFFTISGLIHYAPVFRDYVFRSMQEFYEDNVLYMEIRARLLPVYELSGEHHDEEWSVKTYQEVAQKFVETHPEFIGIKIIYSDHRSKDVAVIAESIRMAMGLRIKFPTVVAGFDLVGHEDTGHSLHDYKEALMIPAKDGVKLPYFFHAGETDWQGTSIDRNILDALMLNTTRIGHGFALSKHPAVRTYSWKKDIPIEVCPISNQVLKLVSDLRNHPVATLMATGHPMVISSDDPAMFGAKGLSYDFYEVFMGIGGMKADLRTLKQLAMNSIKYSTLLESEKNTFMEIWKKRWDKFIADVATK
modifications: PEG
Consider B1, for which the “heparin binding compared to the corresponding non-PEGylated ADA2” value is listed as “reduced heparin binding”.
